Measured values: PMC3955401 (Nature, 2013)
No end group written: not given here.

Legend:
Experiment in all cases: pull-down
[1] = target: GST-53BP1 Tudor (UniProt Q12888 1484-1603)
[2] = target: GST-53BP1 Tudor-UDR L1619A (UniProt Q12888 1484-1631, L1619A)
[3] = target: GST-53BP1 Tudor-UDR (UniProt Q12888 1484-1631)
Sequence of GST-53BP1 Tudor-UDR (Q12888 1484-1631): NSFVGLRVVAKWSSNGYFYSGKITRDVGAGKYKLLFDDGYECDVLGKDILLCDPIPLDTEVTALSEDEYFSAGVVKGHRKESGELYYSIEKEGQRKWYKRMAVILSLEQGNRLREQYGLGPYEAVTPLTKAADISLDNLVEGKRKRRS

Sequence of GST-53BP1 Tudor-UDR L1619A (Q12888 1484-1631 L1619A): as the sequence (Q12888 1484-1631) above, with L136A counted along it
Sequence of GST-53BP1 Tudor (Q12888 1484-1603): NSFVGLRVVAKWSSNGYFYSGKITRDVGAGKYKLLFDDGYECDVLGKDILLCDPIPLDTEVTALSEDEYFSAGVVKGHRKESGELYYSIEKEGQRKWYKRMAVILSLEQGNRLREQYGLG

binding result [1]: binds
binding result [2]: binds
binding result [3]: binds
B1: H4K20me2 peptide (peptide)
peptide: YGKGGAKRHRK(dimethyl)VLRD
